Positions count from the first letter of the chain named. Ends that are not written are not given here. BSA = bovine serum albumin (carrier protein)
Columns and labels:
[1] = target: T1, human renalase (human, UniProt Q5VYX0 18-342, limits assumed); assay: cell-based or functional assay
[2] = target: T2, mouse renalase (mouse, UniProt A7RDN6 18-342, limits assumed); assay: cell-based or functional assay
[3] = target: T2, mouse renalase; assay: multipoint ELISA (A450), IgG dilution series on mouse renalase
[4] = target: T1, human renalase; assay: multipoint ELISA (A450), IgG dilution series on human renalase
[5] = target: T3, renalase-1 (full-length recombinant protein) (human, UniProt Q5VYX0 18-342, limits assumed); assay: competition ELISA on coated renalase-1: unconjugated 1D 28-4 titrated against a constant amount of biotinylated 1D 37-10, NeutrAvidin-HRP [panel A]
T3 construct: Coated on ELISA plates as bacterially expressed renalase-1; Injected as purified recombinant renalase-1 in the Biacore assay; also called renalase-1 protein; RNLS
Experimental: (§1) Specificity of Epitope Binding: Bacterially-expressed renalase isoforms, diluted to 100 ng/well in PBS, were bound to a 96 well microtiter plate by overnight incubation at 4° C. The plate was blocked with a solution of 8% NFDM in PBS for one hour at 33° C. The renalase protein was probed with a dilution series of an unconjugated antibody, typically starting at 1 μg/mL, mixed with a different biotinylated antibody. […] Both antibodies were mixed together in PBST and applied as one addition of 50μL per well. After one hour incubation at 33° C., the plate was rinsed three times with PBST. Binding of the biotinylated antibody to renalase was assayed by adding HRP-conjugated Neutravidin (HRP-NA) at 0.4 ng/mL, 50 μL per well. The plate was incubated at room temperature for 40 minutes. After incubation, the plate was washed three times with PBST and once with PBS. The HRP substrate 3, 3′, 5, 5′-tetramethylbenzidine (TMB) was added to 100 μL per well, and plate was incubated for approximately 5 minutes at room temperature. To stop the reaction, 100 μL 2 N H2504 was added to each well. The plate was read at 450 nm in a spectrophotometer.
(§2) Bacterially-expressed renalase-1, diluted to 100ng/well in PBS, was bound to a 96 well microtiter plate by overnight incubation at 4° C. […]

[6] = target: T4, peptide 3A conjugated to BSA; assay: ELISA on peptide antigen
T4 construct: Renalase-2 specific peptide; also called 3A5; not shown: BSA carrier, chemically conjugated via the cysteine
T4 peptide: PSAGVILGC(BSA)
Experimental: (§3) Peptide-Antigen Specificity ELISA: Bovine serum albumin (BSA)-conjugated renalase peptide antigen, diluted to 100 ng/well in PBS, was bound to a 96 well microtiter plate by overnight incubation at 4° C. The plate was blocked with a solution of 8% NFDM in PBS for one hour at 33° C. The peptide antigen was probed with a dilution series of the antibody raised against it, or with an antibody raised against a different antigen. The starting concentration of antibody was typically 5 μg/mL, with two-fold dilution steps prepared in PBS containing Tween-20 to 0.05% (PBST). After one hour incubation at 33° C., the plate was rinsed three times with PBST. Antibody binding was assayed by adding HRP-conjugated anti-rabbit IgG at 50 ng/mL, 50 μL per well. The plate was incubated at room temperature for 40 minutes. After incubation, the plate was washed three times with PBST and once with PBS. The HRP substrate 3, 3′, 5, 5′-tetramethylbenzidine (TMB) was added to 100 μL per well, and plate was incubated for approximately 5 minutes at room temperature. To stop the reaction, 100 μL 2 N […] was added to each well. The plate was read at 450 nm in a spectrophotometer.
(§4) Renalase peptides used for immunization were synthesized, then conjugated to bovine serum albumin (BSA). […] The plate was read at 450 nm in a spectrophotometer after reaction of HRP with the substrate TMB. […]

[7] = target: T5, 1F peptide conjugated to BSA; assay: ELISA on coated 1F peptide-BSA conjugate, antibody dilution series, anti-rabbit IgG-HRP
T5 construct: Renalase peptide present only in renalase-1; also called 1F-BSA protein; 1F antigen; not shown: BSA carrier, chemically conjugated via the cysteine
T5 peptide: C(BSA)VLEALKNYI
Experimental: as §3, §4

[8] = target: T6, renalase-2 (recombinant protein) (human, UniProt Q5VYX0 18-293); assay: ELISA on coated renalase-2, antibody dilution series (axis: log (ng/ml) supe), anti-rabbit IgG-HRP
T6 construct: Bacterially expressed and coated on ELISA plates; also called renalase-2 isoform
Experimental: Bacterially-expressed renalase-1 and 2 isoforms, were diluted to 100 ng/well in PBS and bound to a 96 well microtiter plate. The plate was blocked with a solution of 8% NFDM in PBS for one hour at 33° C. The renalase proteins were probed with a dilution series of the antibodies 1D-28-4, 1D-37-10, 1F-42-7, 1F-26-1 and 3A5-2. The starting concentration of antibody was typically 1μg/mL, with two-fold dilution steps prepared in PBS containing Tween-20 to 0.05% PBST. After one hour incubation at 33° C., the plate was rinsed three times with PBST. Antibody binding was assayed by adding HRP-conjugated anti-rabbit IgG at 50 ng/mL, 50μL per well. The plate was incubated at room temperature for 40 minutes. After incubation, the plate was washed three times with PBST and once with PBS. The HRP substrate 3, 3′, 5, 5′-tetramethylbenzidine (TMB) was added to 100 μL per well, and plate was incubated for approximately 5 minutes at room temperature. To stop the reaction, 100 μL 2 N H₂SO₄ was added to each well. The plate was read at 450 nm in a spectrophotometer.

[9] = target: T3, renalase-1 (full-length recombinant …); assay: competition ELISA on coated renalase-1: unconjugated 1F 42-7 titrated against a constant amount of biotinylated 1F 26-1, NeutrAvidin-HRP [panel A]
Experimental: as §1, §2

T1 sequence (Q5VYX0 18-342 limits assumed): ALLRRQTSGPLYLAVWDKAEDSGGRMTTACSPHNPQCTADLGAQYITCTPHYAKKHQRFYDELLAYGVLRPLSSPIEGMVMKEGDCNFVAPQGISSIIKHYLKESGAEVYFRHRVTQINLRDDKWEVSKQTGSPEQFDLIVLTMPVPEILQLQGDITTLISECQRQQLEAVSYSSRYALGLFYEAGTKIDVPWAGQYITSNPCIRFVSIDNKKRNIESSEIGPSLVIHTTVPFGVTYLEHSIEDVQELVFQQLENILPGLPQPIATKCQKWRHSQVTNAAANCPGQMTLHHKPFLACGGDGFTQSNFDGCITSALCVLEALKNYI
T2 sequence (A7RDN6 18-342 limits assumed): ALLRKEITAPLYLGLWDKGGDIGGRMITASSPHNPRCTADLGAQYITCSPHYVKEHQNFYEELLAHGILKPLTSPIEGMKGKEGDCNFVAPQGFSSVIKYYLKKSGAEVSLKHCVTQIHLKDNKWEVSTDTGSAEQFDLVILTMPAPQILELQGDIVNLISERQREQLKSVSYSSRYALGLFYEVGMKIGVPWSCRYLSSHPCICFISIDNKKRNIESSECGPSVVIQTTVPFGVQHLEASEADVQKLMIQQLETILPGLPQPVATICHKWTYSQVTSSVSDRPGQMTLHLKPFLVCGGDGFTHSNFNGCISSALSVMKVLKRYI
T6 sequence (Q5VYX0 other isoform, or with tags, fused parts or gaps limits assumed): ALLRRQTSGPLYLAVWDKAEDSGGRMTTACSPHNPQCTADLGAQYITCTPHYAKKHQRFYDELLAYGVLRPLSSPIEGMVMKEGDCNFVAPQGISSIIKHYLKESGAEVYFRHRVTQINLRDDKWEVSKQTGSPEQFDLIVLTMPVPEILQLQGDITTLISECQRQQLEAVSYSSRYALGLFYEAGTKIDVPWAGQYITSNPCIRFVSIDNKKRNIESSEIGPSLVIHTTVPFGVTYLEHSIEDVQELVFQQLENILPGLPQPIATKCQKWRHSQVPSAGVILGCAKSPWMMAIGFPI
T3 sequence (Q5VYX0 18-342 limits assumed): as the sequence (Q5VYX0 18-342 limits assumed) above

B1: M28-K5 (humanized, affinity-matured variant of M28) (antibody, V domains shown)
VH: EVQLVESGGGLVQPGGSLRLSCAASGFNLSSFAVHWVRQAPGKGLEWVALISGRGTRFYADSVKGRFTISKDTSKNTAYLQMNSLRAEDTAVYYCARHWYSGGVVRLDAWGQGTLVTVSS
VL: DIQMTQSPSSLSASVGDRVTITCRASQSVYDNNNVAWYQQKPGKAPKLLIYGASTLYSGVPSRFSGSRSGTDFTLTISSLQPEDFATYYCLGEGPCSVTDCLIFGQGTKVEIKR
IC50 of % cell survival, BxPC3 (human pancreatic adenocarcinoma) cells [1]: 24.5 nM
IC50 of % cell survival, YUMM1.7 (mouse melanoma) cells [2]: 3760 nM

B2: M28-K14 (humanized, affinity-matured variant of M28) (antibody, V domains shown)
VH: B1 VH with H98Y, W99G, G103D, V105N, A109L
VL: B1 VL
notes: the residue limits are my own count; also called M28-14
EC50 (read off the curve) [3]: ~0.08 nM
IC50 of % cell survival, YUMM1.7 (mouse melanoma) cells [2]: 1.41 nM
EC50 (read off the curve) [4]: ~0.06 nM

B3: M28-K13 (humanized, affinity-matured variant of M28) (antibody, V domains shown)
VH: B1 VH with S52G, G53V, T56S, R57L, F58Y
VL: B1 VL with G94F, P95S, V98S, T99A, L102F, I103A
IC50 of % cell survival, BxPC3 (human pancreatic adenocarcinoma) cells [1]: 25.5 nM
IC50 of % cell survival, YUMM1.7 (mouse melanoma) cells [2]: 31.5 nM

B4: M28-K2 (humanized, affinity-matured variant of M28) (antibody, V domains shown)
VH: B1 VH with S52G, G53V, T56S, R57L, F58Y
VL: B1 VL
IC50 of % cell survival, BxPC3 (human pancreatic adenocarcinoma) cells [1]: 31.7 nM
IC50 of % cell survival, YUMM1.7 (mouse melanoma) cells [2]: 1330 nM

B5: M28-K16 (humanized, affinity-matured variant of M28) (antibody, V domains shown)
VH: B1 VH
VL: B1 VL with G94F, P95S, V98S, T99A, L102F, I103A
notes: the residue limits are my own count
EC50 (read off the curve) [3]: ~0.06 nM
IC50 of % cell survival, BxPC3 (human pancreatic adenocarcinoma) cells [1]: 1700 nM
IC50 of % cell survival, YUMM1.7 (mouse melanoma) cells [2]: 17.5 nM
EC50 (read off the curve) [4]: ~0.05 nM

B6: monoclonal antibody 1D-28-4 (antibody, V domains shown)
VH: QSVEESGGRLVTPGTPLTLTCTVSGFSLSSFAVGWVRQAPGKGLEYIGIISSVGITRYASWAAGRFTISKTSTTVDLKITSPTTEDTATYFCARYGYSGDVNRLDLWGQGTLVTVSS
VL: AQVLTQTASPVSAAVGGTVTINCQASQSVYDNNNLAWYQQKPGQPPKQLIYGASTLASGVSSRFKGSGSGTQFTLTISGVQCDDAATYYCLGEFSCSSADCFAFGGGTEVVVKG
notes: also called m28-RNLS; Ren1D 28-4
IC50 (read off the curve) [5]: ~2 µg/mL
IC50 of % cell survival, BxPC3 (human pancreatic adenocarcinoma) cells [1]: 1.5 nM
IC50 of % cell survival, YUMM1.7 (mouse melanoma) cells [2]: 70 nM
EC50 (read off the curve) [4]: ~0.3 nM

B7: monoclonal antibody 3A-5-2 (antibody, V domains shown)
VH: QSLEESGGRLVTPGTPLTLTCTVSGFSLNNYHIYWVRQAPGKGLEYIGIIFNGGTYYARWTKGRFTISKTSTTVDLKMTSLTTEDTATYFCARGDGIWGPGTLVTVSL
VL: AQVLTQTPASVSAAVGGTVTINCQASQSVFNNNYLAWYQQKPGQPPKRLIYSASTLASGVSSRFKGSGSGTEFTLTMSGVECDDAATYYCAGSFDCNSGDCVAFGGGTEVVVKG
notes: Rabbit monoclonal from hybridoma, raised against the renalase-2 specific peptide 3A (3A5)
binding result [6]: binds

B8: monoclonal antibody 1F-26-1 (antibody, V domains shown)
VH: QSVKESEGGLFKPTDTLTLTCTVSGFSLSSYGVTWVRQAPGNGLEWIGLIGDRGTTFYASWAKSRSTITRNTNLNTVTLKMTRLTAADTATYFCARGSGYGARIWGPGTLVTVSS
VL: AQVLTQTPSPVSAAVGGTVTINCQSSQSVYKNNYLAWYQQKPGQPPKLLIYETSKLASGVPPRFSGSGSGTQFTLTISSVQCDDAATYYCQGGYSGVDFMAFGGGTEVVVKG
notes: Rabbit monoclonal from hybridoma, raised against the 1F peptide; also called IF 26-1
EC50 (read off the curve) [7]: ~0.3 µg/mL
binding result [8]: no binding (tested: 1000 ng/ml)

B9: monoclonal antibody 1F-42-7 (antibody, V domains shown)
VH: B8 VH with S29T, S30T, F57Y, A62V, K63N, S64G, S114A
VL: B8 VL with V11M, V15L, S28T, K31N, A36S, A57S
notes: Rabbit monoclonal from hybridoma, raised against the 1F peptide; Biotinylated in the biotin ELISA and Biacore assays; also called IF 42-7; M42
EC50 (read off the curve) [7]: ~0.3 µg/mL
binding result [8]: no binding (tested: 1000 ng/ml)
IC50 (read off the curve) [9]: ~1 µg/mL

From patent US20220348684A1 (YALE UNIVERSITY, published 2022)
